Data from US20190201435, “MODULATORS OF VAULT RNAS FOR USE IN THE TREATMENT OF DISEASES” (European Molecular Biology Laboratory, published 2019).

What was measured:
MBP tag only = MBP tag only (UniProt P0AEX9 P0AEX9:27-396); assay: EMSA; MBP tag control
[1] = biological target: p62 (SQSTM1, sequestosome 1) wild type (UniProt Q13501 Q13501:1-440); assay: EMSA; apparent Kd, TBE pH 8.3 gel; competed by cold vtRNA1-1; conditions: tags: MBP; (radioactive in EMSA); terminal stem loop, single-stranded loops in central domain

B1: vtRNA1-1 (ssRNA)
RNA: GGCUGGCUUUAGCUCAGCGGUUACUUCGACAGUUCUUUAAUUGAAACAAGCAACCUGUCUGGGUUGUUCGAGACCCGCGGGCGCUCUCCAGUCCUUUU
binding result (MBP tag only): no binding | Kd [1]: ~60 nM
